Experiments:
[1] = molecular target: Trypanosoma cruzi oligopeptidase B (OPBTc), recombinant, N-terminal His-tagged (Trypanosoma cruzi (CL Brener)); test: AUC; sedimentation velocity, 10 °C, OPBTc at 28.1, 8.4 and 1.8 µM in 25 mM Tris pH 8.0, 100 mM NaCl, 130,000 x g; c(s) analysis, s combined with the Stokes radius from SEC
[2] = molecular target: Trypanosoma cruzi oligopeptidase B (OPBTc), recombinant, N-terminal His-tagged (Trypanosoma cruzi (CL Brener)); test: SEC; enzyme incubated at 28, 37, 42, 50 or 60°C for 20 min before the run; Superdex 200 10/300, 25 mM Tris-HCl pH 8.0; at 50 and 60°C a void-volume aggregate peak and a second peak of 160 kDa
[3] = molecular target: Trypanosoma cruzi oligopeptidase B (OPBTc), recombinant, N-terminal His-tagged (Trypanosoma cruzi (CL Brener)); test: SEC; Superdex 200 10/300, 25 mM Tris-HCl pH 8.0, 200 mM NaCl, room temperature, calibrated with proteins of known Stokes radii; also run with 0.5 or 1.0 M NaCl (same elution, dimer not disrupted)

Measured: stoichiometry N

Trypanosoma cruzi oligopeptidase B (OPBTc), recombinant, N-terminal His-tagged (enzyme)
2: all assays above

— article PMC3261901
